Measured values published in doi:10.1101/2021.08.25.457658.
Like-named read-outs stand apart in the source and are kept apart here.

B1: Spic promoter NF-kB site WT (dsDNA)
DNA 1: GCTGCAAAGGGGATTTTTTTT
DNA 2: AAAAAAAATCCCCTTTGCAGC
B2: Spic promoter NF-kB site mutant (dsDNA)
DNA 1: GCTGCAAAGCCGATTTTTTTT
DNA 2: AAAAAAAATCGGCTTTGCAGC

Legend:
[1] = target: T1, GST-p50 (NF-kB p50 subunit) (UniProt P19838-2 1-433, del434-969); test: EMSA
[2] = target: T1, GST-p50 (NF-kB p50 subunit); test: EMSA; remark: listed apart in the source

Binder	binding result [1]	binding result [2]
B1	binds	–
B2	–	no binding
